According to patent publication US20230374157A1 (SYSTIMMUNE, published 2023):
Values belong to the binder of their own block, whether it stands above or below them.

What was measured:
[1] = biological target: T1, His-tagged human EGFR extracellular domain (expressed and purified in-house) (human, UniProt P00533 25-645); assay: BLI, antibody on AHC tips, monomeric EGFR ECD in solution, 1:1 fit
T1 construct: extracellular domain; Monomeric, in solution; also called EGFR (purified in-house); not shown: His tag

[2] = biological target: T2, His-tagged human HER3 extracellular domain (Acro ER3-H5223) (human, UniProt P21860 20-643); assay: BLI, antibody on AHC tips, monomeric HER3 ECD in solution, 1:1 fit
T2 construct: extracellular domain; Monomeric, in solution; not shown: His tag

[3] = biological target: T3, biotinylated human EGFR extracellular domain (Acro EGF-H82E3) (human, UniProt P00533 25-645, biotinylated (site not stated)); assay: BLI avidity format, biotinylated EGFR ECD on SA sensors, antibody in solution, 1:1 fit
T3 construct: extracellular domain; Loaded onto streptavidin (SA) sensors; also called immobilized EGFR

[4] = biological target: T4, human His-tagged HER3 extracellular domain (in-house expressed) (human, UniProt P21860 20-643); assay: BLI sandwich assay, antibody held on immobilized biotinylated EGFR, 500 nM HER3 ECD in solution, 1:1 fit
T4 construct: extracellular domain; also called HER3 ECD (in-house expressed); not shown: His tag

[5] = biological target: T4, human His-tagged HER3 extracellular …; assay: BLI sandwich assay, antibody held on immobilized EGFR, HER3 ECD in solution
[6] = biological target: T2, His-tagged human HER3 extracellular …; assay: BLI (Octet), antibody captured on AHC sensors; tandem: 100 nM EGFR 720 s, then 100 nM EGFR + 400 nM HER3 720 s, then buffer; EGFR+HER3 step

Kd [1]: 4.61 nM | koff [1]: 0.00122 s⁻¹ | kon [1]: 264000 M⁻¹ s⁻¹ | Kd [2]: 117 nM | koff [2]: 0.0308 s⁻¹ | kon [2]: 265000 M⁻¹ s⁻¹ | Kd [3]: < 0.001 nM | koff [3]: < 1e-07 s⁻¹ | kon [3]: 353000 M⁻¹ s⁻¹ | Kd [4]: 922 nM | koff [4]: 0.07 s⁻¹ | kon [4]: 75900 M⁻¹ s⁻¹
B1: SI-71X14, bispecific tetravalent anti-EGFR x HER3 antibody (humanized cetuximab IgG with MM-111 anti-HER3 scFv at the C-terminus of each heavy chain) (bispecific antibody)
heavy: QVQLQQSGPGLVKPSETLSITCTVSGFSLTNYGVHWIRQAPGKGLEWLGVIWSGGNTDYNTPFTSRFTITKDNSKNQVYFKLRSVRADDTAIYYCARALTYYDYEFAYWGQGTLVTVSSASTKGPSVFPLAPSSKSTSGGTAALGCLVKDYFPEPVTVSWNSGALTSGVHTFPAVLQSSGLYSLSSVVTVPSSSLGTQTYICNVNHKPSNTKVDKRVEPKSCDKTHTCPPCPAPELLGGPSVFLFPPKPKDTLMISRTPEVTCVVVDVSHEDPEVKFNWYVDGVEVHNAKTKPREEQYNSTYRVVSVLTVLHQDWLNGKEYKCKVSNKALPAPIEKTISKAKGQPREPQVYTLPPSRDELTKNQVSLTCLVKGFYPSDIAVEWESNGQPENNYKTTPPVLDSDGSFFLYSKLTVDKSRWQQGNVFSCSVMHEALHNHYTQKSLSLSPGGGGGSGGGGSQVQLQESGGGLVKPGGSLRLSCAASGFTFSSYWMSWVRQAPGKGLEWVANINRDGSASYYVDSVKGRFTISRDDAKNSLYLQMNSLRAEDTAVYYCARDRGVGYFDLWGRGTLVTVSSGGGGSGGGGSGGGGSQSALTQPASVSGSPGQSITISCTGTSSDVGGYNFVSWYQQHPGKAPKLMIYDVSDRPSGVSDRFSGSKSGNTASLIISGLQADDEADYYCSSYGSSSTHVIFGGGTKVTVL
light: EIVLTQSPSTLSVSPGERATFSCRASQSIGTNIHWYQQKPGKPPRLLIKYASESISGIPDRFSGSGSGTEFTLTISSVQSEDFAVYYCQQNNNWPTTFGPGTKLTVLRTVAAPSVFIFPPSDEQLKSGTASVVCLLNNFYPREAKVQWKVDNALQSGNSQESVTEQDSKDSTYSLSSTLTLSKADYEKHKVYACEVTHQGLSSPVTKSFNRGEC
notes: VH position 85 (Kabat) is D instead of cetuximab's N

Kd [1]: 4.76 nM | koff [1]: 0.0013 s⁻¹ | kon [1]: 272000 M⁻¹ s⁻¹ | binding result [5]: no binding (tested: 500 nM) | Kd [3]: < 0.001 nM | koff [3]: < 1e-07 s⁻¹ | kon [3]: 466000 M⁻¹ s⁻¹ | binding result [6]: no binding (tested: 400 nM)
B2: SI-71M1, humanized cetuximab monoclonal antibody (antibody, human IgG1, kappa, V domains shown)
VH: QVQLQQSGPGLVKPSETLSITCTVSGFSLTNYGVHWIRQAPGKGLEWLGVIWSGGNTDYNTPFTSRFTITKDNSKNQVYFKLRSVRADDTAIYYCARALTYYDYEFAYWGQGTLVTVSS
VL: EIVLTQSPSTLSVSPGERATFSCRASQSIGTNIHWYQQKPGKPPRLLIKYASESISGIPDRFSGSGSGTEFTLTISSVQSEDFAVYYCQQNNNWPTTFGPGTKLTVLR
notes: also called Hu-Cetuximab; humanized cetuximab mAb

Kd [1]: 15.8 nM | koff [1]: 0.00178 s⁻¹ | kon [1]: 113000 M⁻¹ s⁻¹
B3: SI-1C5 (nimotuzumab-based anti-EGFR monoclonal antibody) (antibody, V domains shown)
VH: QVQLQQSGAEVKKPGSSVKVSCKASGYTFTNYYIYWVRQAPGQGLEWIGGINPTSGGSNFNEKFKTRVTITVDESTNTAYMELSSLRSEDTAFYFCARQGLWFDSDGRGFDFWGQGSTVTVSS
VL: DIQMTQSPSSLSASVGDRVTITCRSSQNIVHSNGNTYLDWYQQTPGKAPKLLIYKVSNRFSGVPSRFSGSGSGTDFTFTISSLQPEDIATYYCFQYSHVPWTFGQGTKLQITR
